The values that follow come from patent US20170342151A1.

For experiment [1], the target named is CD3 on T cells (UniProt P07766). The experiment can be described thus: FACS on T cells, negative control antibody, amount not given, PE goat anti-human secondary; the same row stands in all three tables of the figure.
Experiment [2] addresses human chondroitin sulfate proteoglycan 4 (CSPG4) on cells (human) (UniProt Q6UVK1). The experiment is described as follows: FACS on M14 cells, negative control antibody, amount not given, PE goat anti-human secondary; the same row stands in all three tables of the figure.
Experiment [3] addresses CD3 on T cells (UniProt P07766). The experiment can be described thus: FACS on T cells, 0.01 ug antibody, PE goat anti-human secondary; panel labelled CONTROL.
Experiment [4] addresses CD3 antigen (surface plasmon resonance). The experiment can be described thus: SPR, Biacore, two state reaction model. A general note: SPR reads the build-up and loss of mass on a sensor chip optically.
The target in experiment [5] is CD3 on T cells (UniProt P07766). The experiment can be described thus: FACS on T cells, 1 ug antibody, PE goat anti-human secondary; panel labelled CONTROL.
Experiment [6] shares this target. The experiment can be described thus: FACS on T cells, 0.1 ug antibody, PE goat anti-human secondary; panel labelled CONTROL.

One may read the Kd as the free concentration of one partner at which half of the binding sites on the other are occupied at equilibrium, for simple one-to-one binding. A higher Kd goes with lower affinity. As usually defined, the koff is the first-order rate constant of dissociation. Read a high koff as fast dissociation. Usually kon stands for a measure of how fast the partners come together. A high value points to fast association.

CD3 on T cells, sequence (P07766 23-207, chain 1 of 3): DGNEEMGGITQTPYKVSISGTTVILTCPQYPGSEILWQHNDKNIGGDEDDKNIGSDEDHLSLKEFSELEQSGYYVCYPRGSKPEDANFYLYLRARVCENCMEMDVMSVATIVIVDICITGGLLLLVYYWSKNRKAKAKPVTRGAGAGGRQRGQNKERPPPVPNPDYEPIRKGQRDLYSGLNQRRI
CD3 on T cells, sequence (P09693 23-182, chain 2 of 3, further chain): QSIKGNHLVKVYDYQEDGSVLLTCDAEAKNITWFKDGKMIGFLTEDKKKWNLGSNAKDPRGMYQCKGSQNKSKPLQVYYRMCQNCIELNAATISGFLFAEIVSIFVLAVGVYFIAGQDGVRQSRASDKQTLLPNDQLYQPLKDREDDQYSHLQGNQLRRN
CD3 on T cells, sequence (P04234 22-171, chain 3 of 3, further chain): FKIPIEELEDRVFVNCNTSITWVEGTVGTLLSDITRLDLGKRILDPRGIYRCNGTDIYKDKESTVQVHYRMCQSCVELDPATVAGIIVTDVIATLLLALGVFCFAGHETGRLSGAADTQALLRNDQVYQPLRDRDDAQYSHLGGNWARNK
human chondroitin sulfate proteoglycan 4 (CSPG4) on cells (human), sequence (Q6UVK1 30-2322 limits assumed): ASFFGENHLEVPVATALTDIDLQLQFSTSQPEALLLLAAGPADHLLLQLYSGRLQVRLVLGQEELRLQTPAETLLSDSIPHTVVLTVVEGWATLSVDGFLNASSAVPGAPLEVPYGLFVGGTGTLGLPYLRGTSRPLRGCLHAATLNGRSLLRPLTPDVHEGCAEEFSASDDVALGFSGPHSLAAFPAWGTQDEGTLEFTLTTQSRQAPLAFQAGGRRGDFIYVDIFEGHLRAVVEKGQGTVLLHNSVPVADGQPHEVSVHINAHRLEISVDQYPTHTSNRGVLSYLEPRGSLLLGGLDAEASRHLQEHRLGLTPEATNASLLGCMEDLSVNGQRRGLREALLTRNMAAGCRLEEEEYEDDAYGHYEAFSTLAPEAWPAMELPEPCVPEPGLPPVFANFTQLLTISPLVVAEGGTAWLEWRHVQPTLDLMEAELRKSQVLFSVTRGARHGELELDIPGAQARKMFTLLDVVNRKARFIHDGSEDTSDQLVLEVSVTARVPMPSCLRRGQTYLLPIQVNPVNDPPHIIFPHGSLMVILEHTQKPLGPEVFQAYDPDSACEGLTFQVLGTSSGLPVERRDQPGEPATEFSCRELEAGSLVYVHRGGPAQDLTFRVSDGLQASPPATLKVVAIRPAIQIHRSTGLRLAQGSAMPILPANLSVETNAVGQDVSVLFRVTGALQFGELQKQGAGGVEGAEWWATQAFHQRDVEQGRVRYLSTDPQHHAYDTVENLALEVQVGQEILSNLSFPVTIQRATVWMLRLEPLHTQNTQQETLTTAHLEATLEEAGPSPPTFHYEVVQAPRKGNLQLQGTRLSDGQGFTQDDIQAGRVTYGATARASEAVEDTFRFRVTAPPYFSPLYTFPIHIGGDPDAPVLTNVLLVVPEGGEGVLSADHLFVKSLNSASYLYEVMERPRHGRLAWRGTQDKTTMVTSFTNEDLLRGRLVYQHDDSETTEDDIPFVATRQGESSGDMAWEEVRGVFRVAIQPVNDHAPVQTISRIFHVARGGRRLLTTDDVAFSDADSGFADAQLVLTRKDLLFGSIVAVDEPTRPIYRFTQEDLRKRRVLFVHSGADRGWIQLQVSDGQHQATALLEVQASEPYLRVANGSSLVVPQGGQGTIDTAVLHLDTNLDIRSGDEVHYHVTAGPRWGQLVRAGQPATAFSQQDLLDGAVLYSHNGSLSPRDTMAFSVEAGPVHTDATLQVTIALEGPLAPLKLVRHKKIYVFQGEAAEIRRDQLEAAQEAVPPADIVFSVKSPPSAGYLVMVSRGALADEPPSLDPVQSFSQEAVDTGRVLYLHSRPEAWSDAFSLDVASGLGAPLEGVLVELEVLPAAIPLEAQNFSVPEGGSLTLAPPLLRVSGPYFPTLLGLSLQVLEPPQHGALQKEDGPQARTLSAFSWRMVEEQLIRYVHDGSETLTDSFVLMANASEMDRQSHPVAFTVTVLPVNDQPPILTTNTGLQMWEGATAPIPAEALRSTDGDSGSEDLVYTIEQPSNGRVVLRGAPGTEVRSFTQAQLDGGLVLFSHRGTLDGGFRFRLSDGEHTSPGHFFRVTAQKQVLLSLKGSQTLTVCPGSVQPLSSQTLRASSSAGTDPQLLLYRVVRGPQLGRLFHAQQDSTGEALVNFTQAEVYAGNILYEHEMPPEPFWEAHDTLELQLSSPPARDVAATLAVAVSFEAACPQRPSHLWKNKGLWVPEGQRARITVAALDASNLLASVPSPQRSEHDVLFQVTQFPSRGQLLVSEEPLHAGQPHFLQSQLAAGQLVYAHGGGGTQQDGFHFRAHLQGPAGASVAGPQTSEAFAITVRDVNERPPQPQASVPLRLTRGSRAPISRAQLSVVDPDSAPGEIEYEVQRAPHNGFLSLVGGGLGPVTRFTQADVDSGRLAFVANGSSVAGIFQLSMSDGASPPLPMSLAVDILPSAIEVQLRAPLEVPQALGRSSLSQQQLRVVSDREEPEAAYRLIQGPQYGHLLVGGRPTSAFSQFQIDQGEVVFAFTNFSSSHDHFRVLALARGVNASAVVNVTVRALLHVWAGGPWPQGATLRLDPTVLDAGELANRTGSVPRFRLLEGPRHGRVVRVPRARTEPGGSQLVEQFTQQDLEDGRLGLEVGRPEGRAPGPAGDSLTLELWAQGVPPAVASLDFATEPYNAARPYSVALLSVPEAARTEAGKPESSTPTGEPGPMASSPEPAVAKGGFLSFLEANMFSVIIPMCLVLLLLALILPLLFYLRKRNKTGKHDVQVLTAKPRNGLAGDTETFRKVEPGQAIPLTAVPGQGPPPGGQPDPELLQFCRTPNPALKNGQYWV

For the substance “control human IgG1 antibody (non-specific for CSPG4 or T cells)”, the figures for the GEOMETRIC MEAN : FL2-H in experiment [1] and in experiment [2] were 5.1 and 5.15, respectively.
In the case of humanized OKT3 IgG1-aGlyco (antibody), in experiment [3], the GEOMETRIC MEAN : FL2-H was found to be 66.1. Moreover, in experiment [4], the Kd was found to be 61.7 nM, the off-rate constant (koff) is 0.105 s⁻¹ and the kon amounted to 1.71e+06 M⁻¹ s⁻¹. This substance showed a GEOMETRIC MEAN : FL2-H in experiment [5] of 2010. Moreover, in experiment [6], the GEOMETRIC MEAN : FL2-H worked out at 645.
